The text below walks through data of article PMC9319256, “Human Enzyme PADI4 Binds to the Nuclear Carrier Importin α3” (Cells, 2022).

What is called stoichiometry N is the number of molecules, sites or subunits per partner or assembly. A word on the koff: it is a measure of how fast the partners let go of each other. For orientation: kon means the rate constant with which the complex forms.

In assay [1] the target is NLS1-PADI4 peptide (human). The assay can be described thus: translational diffusion NMR (DOSY); 100 µM peptide; 100 mM sodium phosphate, pH 7.0; 10 °C; dioxane as reference.
For assay [2], the target named is human importin α3 (Impα3), intact (human). Briefly: BLI; BLItz; His-tagged Impα3 or ΔImpα3 immobilised on His-tag biosensors at 0.3 µM; peptides 1-7 µM; manufacturer's buffer; 25 °C; pseudo-first-order plots; apparent. On the technique in general: BLI is a label-free optical method that tracks binding on a fibre tip over time.
The target of assay [3] is ΔImpα3, truncated importin α3 lacking the importin β-binding (IBB) domain (human). The assay is described as above.
The target of assay [4] is human importin α3 (Impα3), intact (human). Briefly: ITC; PADI4 or peptide (100 µM) in the syringe titrated into importin (10 µM) in the cell; 20 mM Tris pH 7.5, 5 mM TCEP, 150 mM NaCl, 5% glycerol; 25 °C; single-site model.
Assay [5] concerns the target ΔImpα3, truncated importin α3 lacking the importin β-binding (IBB) domain (human). The assay is described as above.
Assay [6] concerns the target human importin α3 (Impα3), intact (human). The description is as above. This is another data set of the same source.
The target in assay [7] is PADI4 (peptidyl-arginine deiminase 4), intact (human) (UniProt Q9UM07). The assay can be described thus: other fluorescence titration; importin species 0-25 µM added to 3 µM PADI4; 20 mM Tris pH 7.5, 5 mM TCEP, 150 mM NaCl, 5% glycerol; 25 °C; fluorescence at 330 nm.
Chain of PADI4 (peptidyl-arginine deiminase 4), intact (human) (Q9UM07 whole entry): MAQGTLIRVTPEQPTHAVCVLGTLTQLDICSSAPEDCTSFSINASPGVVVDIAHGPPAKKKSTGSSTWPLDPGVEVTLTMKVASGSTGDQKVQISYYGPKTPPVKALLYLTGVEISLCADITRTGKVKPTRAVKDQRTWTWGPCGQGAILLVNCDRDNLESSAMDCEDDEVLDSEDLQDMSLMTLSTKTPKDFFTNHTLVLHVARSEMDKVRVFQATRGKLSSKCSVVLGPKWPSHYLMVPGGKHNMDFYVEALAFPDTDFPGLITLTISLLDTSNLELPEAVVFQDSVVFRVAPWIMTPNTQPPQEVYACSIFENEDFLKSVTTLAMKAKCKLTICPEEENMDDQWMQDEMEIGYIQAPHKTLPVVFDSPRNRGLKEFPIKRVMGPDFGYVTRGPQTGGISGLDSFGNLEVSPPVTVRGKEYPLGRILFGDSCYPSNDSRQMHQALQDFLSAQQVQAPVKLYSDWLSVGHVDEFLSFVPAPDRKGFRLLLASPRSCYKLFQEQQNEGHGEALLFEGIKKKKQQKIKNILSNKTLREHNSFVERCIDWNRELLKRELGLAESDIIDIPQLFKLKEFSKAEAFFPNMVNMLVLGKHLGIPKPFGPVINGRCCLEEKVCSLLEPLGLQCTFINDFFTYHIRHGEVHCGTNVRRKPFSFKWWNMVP

Chain of PADI4 (peptidyl-arginine deiminase 4), intact (Q9UM07 whole entry): as above

Regarding NLS1-PADI4 peptide, the stoichiometry N in assay [1] came to 6; in assay [4], 1.24; in assay [5] it was 1.22. The Kd in assay [2] was 18 µM; in assay [3], 4 µM; in assay [4], 4.3 µM; in assay [5] it was 1.5 µM; in assay [6], 4.4 µM. The koff worked out at 0.0685 s⁻¹ in assay [2] and 0.046 s⁻¹ in assay [3]. Also, the values for the kon in assay [2] and in assay [3] were 3700 M⁻¹ s⁻¹ and 11000 M⁻¹ s⁻¹, respectively. Besides, the Ka in assay [4] came out at 230000 M⁻¹; in assay [5], 650000 M⁻¹. The results for the dH in assay [4] and in assay [5] were -21.3 kcal/mol and -8.7 kcal/mol, respectively.
Take “PADI4 (peptidyl-arginine deiminase 4), intact (from UniProt Q9UM07 1-663) (enzyme)”: in assay [4], the Ka worked out at 210000 M⁻¹, the Kd worked out at 4.8 µM, the dH was -65.5 kcal/mol and the stoichiometry N stood at 0.97. In assay [5], the Ka was determined as 780000 M⁻¹, the Kd is 1.3 µM, the dH was -38.4 kcal/mol and the stoichiometry N is 0.84.
For the substance “human importin α3 (Impα3), intact (natural protein)”, the Kd in assay [7] stood at 3.9 µM.
The same measure, in the same setting: the same measure for “ΔImpα3, truncated importin α3 lacking the importin β-binding (IBB) domain (domain or fragment)”: 6 µM.
